Results reported in US20230114801A1 (SYSTIMMUNE, published 2023).

How the values were obtained:
Test in all cases: BLI (Octet), binder on AHC sensor, 100 nM human antigen, 1:1 fit
human 4-1BB = molecular target: T1, human 4-1BB (human, UniProt Q07011 24-186, limits assumed)
T1 construct: Soluble antigen in Octet; construct not described

human CD3 = molecular target: T2, human CD3 (human, UniProt P07766 23-126; P04234 22-105)
T2 construct: also called His-tagged human CD3; human CD3 (Acro CDD-H52W1)

human PD-L1 = molecular target: T3, human PD-L1 (human, UniProt Q9NZQ7 19-238)
T3 construct: Soluble antigen in Octet; bought; also called human PD-L1 (Acro PD1-H5229)

human EGFR = molecular target: T4, human EGFR (human, UniProt P00533 25-645, limits assumed)
T4 construct: Soluble antigen in Octet; construct not described

Kd (human 4-1BB) | Kd (human CD3) | Kd (human PD-L1) | Kd (human EGFR) | Binder
21.2 nM | 20.1 nM | 2.7 nM | 11.1 nM | SI-75P9 (other, penta-miniGNC; D1 αEGFR, D2 αCD3, D3 αHER3 (Fab), D4 α4-1BB, D5 αPD-L1) chain 1: EIVLTQSPSTLSVSPGERATFSCRASQSIGTNIHWYQQKPGKPPRLLIKYASESISGIPDRFSGSGSGTEFTLTISSVQSEDFAVYYCQQNNNWPTTFGPGTKLTVLGGGGSGGGGSGGGGSGGGGSQVQLQQSGPGLVKPSETLSITCTVSGFSLTNYGVHWIRQAPGKGLEWLGVIWSGGNTDYNTPFTSRFTITKDNSKNQVYFKLRSVRADDTAIYYCARALTYYDYEFAYWGQGTLVTVSSGGGGSGGGGSQVQLQESGGGLVKPGGSLRLSCAASGFTFSSYWMSWVRQAPGKGLEWVANINRDGSASYYVDSVKGRFTISRDDAKNSLYLQMNSLRAEDTAVYYCARDRGVGYFDLWGRGTLVTVSSASTKGPSVFPLAPSSKSTSGGTAALGCLVKDYFPEPVTVSWNSGALTSGVHTFPAVLQSSGLYSLSSVVTVPSSSLGTQTYICNVNHKPSNTKVDKRVEPKSCDKTHTCPPCPAPEAAGGPSVFLFPPKPKDTLMISRTPEVTCVVVDVSHEDPEVKFNWYVDGVEVHNAKTKPREEQYNSTYRVVSVLTVLHQDWLNGKEYKCAVSNKALPAPIEKTISKAKGQPREPQVYTLPPSRDELTKNQVSLSCAVKGFYPSDIAVEWESNGQPENNYKTTPPVLDSDGSFFLVSKLTVDKSRWQQGNVFSCSVMHEALHNHYTQKSLSLSPGGGGGSGGGGSDVVMTQSPSSVSASVGDRVTITCQASQNIRTYLSWYQQKPGKAPKLLIYAAANLASGVPSRFSGSGSGTDFTLTISDLEPGDAATYYCQSTYLGTDYVGGAFGGGTKLTVLGGGGSGGGGSGGGGSGGGGSEVQLVESGGGLVQPGGSLRLSCTASGFTISSYHMQWVRQAPGKGLEYIGTISSGGNVYYASSARGRFTISRPSSKNTVDLQMNSLRAEDTAVYYCARDSGYSDPMWGQGTLVTVSS chain 2: DVVMTQSPSTLSASVGDRVTINCQASESISSWLAWYQQKPGKAPKLLIYEASKLASGVPSRFSGSGSGTEFTLTISSLQPDDFATYYCQGYFYFISRTYVNSFGGGTKVEIKGGGGSGGGGSGGGGSGGGGSEVQLVESGGGLVQPGGSLRLSCAASGFTISTNAMSWVRQAPGKGLEWIGVITGRDITYYASWAKGRFTISRDNSKNTLYLQMNSLRAEDTAVYYCARDGGSSAITSNNIWGQGTLVTVSSGGGGSGGGGSQSALTQPASVSGSPGQSITISCTGTSSDVGGYNFVSWYQQHPGKAPKLMIYDVSDRPSGVSDRFSGSKSGNTASLIISGLQADDEADYYCSSYGSSSTHVIFGGGTKVTVLRTPKANPTVTLFPPSSEELQANKATLVCLISDFYPGAVTVAWKADGSPVKAGVETTKPSKQSNNKYAASSYLSLTPEQWKSHRSYSCQVTHEGSTVEKTVAPTECSGGDKTHTCPPCPAPEAAGGPSVFLFPPKPKDTLMISRTPEVTCVVVDVSHEDPEVKFNWYVDGVEVHNAKTKPREEQYNSTYRVVSVLTVLHQDWLNGKEYKCAVSNKALPAPIEKTISKAKGQPREPQVYTLPPSRDELTKNQVSLWCLVKGFYPSDIAVEWESNGQPENNYKTTPPVLDSDGSFFLYSKLTVDKSRWQQGNVFSCSVMHEALHNRFTQKSLSLSPGGGGGSGGGGSDIQMTQSPSTLSASVGDRVTITCQASQSISSHLNWYQQKPGKAPKLLIYKASTLASGVPSRFSGSGSGTEFTLTISSLQPDDFATYYCQQGYSWGNVDNVFGGGTKVTVLGGGGSGGGGSGGGGSGGGGSEVQLLESGGGLVQPGGSLSLSCAASGFSFSSGYDMCWVRQAPGKGLEWIACIAAGSAGITYDANWAKGRFTISRDNSKNTLYLQMNSLRAEDTAVYYCARSAFSFDYAMDLWGQGTLVTVSS
7.51 nM | 17.4 nM | 1 nM | 8.91 nM | SI-75P3 (other, penta-miniGNC; D1 αEGFR, D2 αHER3, D3 αCD3 (Fab), D4 α4-1BB, D5 αPD-L1) chain 1: EIVLTQSPSTLSVSPGERATFSCRASQSIGTNIHWYQQKPGKPPRLLIKYASESISGIPDRFSGSGSGTEFTLTISSVQSEDFAVYYCQQNNNWPTTFGPGTKLTVLGGGGSGGGGSGGGGSGGGGSQVQLQQSGPGLVKPSETLSITCTVSGFSLTNYGVHWIRQAPGKGLEWLGVIWSGGNTDYNTPFTSRFTITKDNSKNQVYFKLRSVRADDTAIYYCARALTYYDYEFAYWGQGTLVTVSSGGGGSGGGGSEVQLVESGGGLVQPGGSLRLSCAASGFTISTNAMSWVRQAPGKGLEWIGVITGRDITYYASWAKGRFTISRDNSKNTLYLQMNSLRAEDTAVYYCARDGGSSAITSNNIWGQGTLVTVSSASTKGPSVFPLAPSSKSTSGGTAALGCLVKDYFPEPVTVSWNSGALTSGVHTFPAVLQSSGLYSLSSVVTVPSSSLGTQTYICNVNHKPSNTKVDKRVEPKSCDKTHTCPPCPAPEAAGGPSVFLFPPKPKDTLMISRTPEVTCVVVDVSHEDPEVKFNWYVDGVEVHNAKTKPREEQYNSTYRVVSVLTVLHQDWLNGKEYKCAVSNKALPAPIEKTISKAKGQPREPQVYTLPPSRDELTKNQVSLSCAVKGFYPSDIAVEWESNGQPENNYKTTPPVLDSDGSFFLVSKLTVDKSRWQQGNVFSCSVMHEALHNHYTQKSLSLSPGGGGGSGGGGSDVVMTQSPSSVSASVGDRVTITCQASQNIRTYLSWYQQKPGKAPKLLIYAAANLASGVPSRFSGSGSGTDFTLTISDLEPGDAATYYCQSTYLGTDYVGGAFGGGTKLTVLGGGGSGGGGSGGGGSGGGGSEVQLVESGGGLVQPGGSLRLSCTASGFTISSYHMQWVRQAPGKGLEYIGTISSGGNVYYASSARGRFTISRPSSKNTVDLQMNSLRAEDTAVYYCARDSGYSDPMWGQGTLVTVSS chain 2: QSALTQPASVSGSPGQSITISCTGTSSDVGGYNFVSWYQQHPGKAPKLMIYDVSDRPSGVSDRFSGSKSGNTASLIISGLQADDEADYYCSSYGSSSTHVIFGGGTKVTVLGGGGSGGGGSGGGGSGGGGSQVQLQESGGGLVKPGGSLSLSCAASGFTFSSYWMSWVRQAPGKGLEWVANINRDGSASYYVDSVKGRFTISRDDAKNSLYLQMNSLRAEDTAVYYCARDRGVGYFDLWGRGTLVTVSSGGGGSGGGGSDVVMTQSPSTLSASVGDRVTINCQASESISSWLAWYQQKPGKAPKLLIYEASKLASGVPSRFSGSGSGTEFTLTISSLQPDDFATYYCQGYFYFISRTYVNSFGGGTKVEIKRTVAAPSVFIFPPSDEQLKSGTASVVCLLNNFYPREAKVQWKVDNALQSGNSQESVTEQDSKDSTYSLSSTLTLSKADYEKHKVYACEVTHQGLSSPVTKSFNRGECGGDKTHTCPPCPAPEAAGGPSVFLFPPKPKDTLMISRTPEVTCVVVDVSHEDPEVKFNWYVDGVEVHNAKTKPREEQYNSTYRVVSVLTVLHQDWLNGKEYKCAVSNKALPAPIEKTISKAKGQPREPQVYTLPPSRDELTKNQVSLWCLVKGFYPSDIAVEWESNGQPENNYKTTPPVLDSDGSFFLYSKLTVDKSRWQQGNVFSCSVMHEALHNRFTQKSLSLSPGGGGGSGGGGSDIQMTQSPSTLSASVGDRVTITCQASQSISSHLNWYQQKPGKAPKLLIYKASTLASGVPSRFSGSGSGTEFTLTISSLQPDDFATYYCQQGYSWGNVDNVFGGGTKVTVLGGGGSGGGGSGGGGSGGGGSEVQLLESGGGLVQPGGSLSLSCAASGFSFSSGYDMCWVRQAPGKGLEWIACIAAGSAGITYDANWAKGRFTISRDNSKNTLYLQMNSLRAEDTAVYYCARSAFSFDYAMDLWGQGTLVTVSS
